# Test system: primary human monocytes
# Test: Chemotaxis assay, transwell migration of primary human monocytes
# Type: cell-based
# Settings: 4 hours, CellTiter-Glo, FIG. 2
# Procedure: Primary Human Monocytes Migrate Along a Chemotactic Gradient towards CX3CR1 Agonists
# The chemotaxis assay assesses the CX3CR1-dependent migration of primary human monocytes towards fractalkine and active CX3CR1 agonists. To determine the migration index, monocytes were positively selected from freshly isolated human PBMCs and seeded at 50,000 cells per insert, on the upper chamber of a transwell plate with a pore size of 5 μm. […] Monocytes were allowed to migrate for 4 hours, and subsequently detected in the lower chamber with the CellTiter-Glo Assay, which measures metabolically active cells.
molecule,measurement,value
"fractalkine: recombinant human fractalkine (CX3CL1), large membrane-anchored or secreted cytokine, ligand of CX3CR1 (protein, UniProt P78423 25-397, looked up) Fractalkine: QHHGVTKCNITCSKMTSKIPVALLIHYQQNQASCGKRAIILETRQHRLFCADPKEQWVKDAMQHLDRQAAALTRNGGTFEKQIGEVKPRTTPAAGGMDESVVLEPEATGESSSLEPTPSSQEAQRALGTSPELPTGVTGSSGTRLPPTPKAQDGGPVGTELFRVPPVSTAATWQSSAPHQPGPSLWAEAKTSEAPSTQDPSTQASTASSPAPEENAPSEGQRVWGQGQSPRPENSLEREEMGPVPAHTDAFQDWGPGSMAHVSVVPVSSEGTPSREPVASGSWTPKAEEPIHATMDPQRLGVLITPVPDAQAATRRQAVGLLAFLGLLFCLGVAMFTYQSLQGCPRKMAGEMAEGLRYIPRSCGSNSYVLVPV",migration of primary human monocytes towards substance (chemotaxis),monocytes migrated towards fractalkine
